Results published in patent US20180155451A1 (published 2018).

T1: FcγRIIb extracellular domain with C-terminal His tag (human, UniProt P31994 43-217)
T1 construct: extracellular domain; also called FcgRIIb; 2b; not shown: His tag at the C terminus
T1 sequence (looked up): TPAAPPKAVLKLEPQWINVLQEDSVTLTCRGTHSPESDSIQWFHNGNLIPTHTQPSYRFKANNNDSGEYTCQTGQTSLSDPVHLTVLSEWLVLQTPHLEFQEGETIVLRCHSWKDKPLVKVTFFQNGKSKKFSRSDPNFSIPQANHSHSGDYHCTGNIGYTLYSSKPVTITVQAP


How the values were obtained:
[1] = target: T1, FcγRIIb extracellular domain with …; experiment: SPR (Biacore), captured antibody, FcγR as analyte; relative to GpH7-A5/GpH7-B3/GpL16-k0 = 100
Method: (§1) Analysis of interaction between objective antibody and the FcγR was carried out using Biacore T100 (GE Healthcare). HBS-EP+ (GE Healthcare) was used as the running buffer, and the measurement temperature was set to 25° C. Chips produced by immobilizing the antigen peptide by the amine coupling method to a Series S Sencor Chip CM5 (GE Healthcare), or alternatively, chips produced by allowing preliminarily biotinylated antigen peptides to interact with and immobilize onto a Series S Sensor Chip SA (certified) (GE Healthcare) were used. Antibodies of interest were captured onto an antigen peptide-immobilized chip, and allowed to interact to each FcγR diluted with running buffer. To regenerate and repeatedly use the chip, the antibodies captured on the chip were washed off by reacting 10 mM glycine-HCl, pH 1.5.
(§2) The FcγR-binding activity of each antibody was assessed primarily using as an indicator the FcγR-binding activity and dissociation constant for FcγR.

[2] = target: T2, FcγRIIIa extracellular domain with C-terminal His tag (human, UniProt P08637 17-208); experiment: as above
T2 construct: extracellular domain; also called FcgRIIIa; 3a; not shown: His tag at the C terminus
Method: as §1, §2

T2 sequence (P08637 17-208): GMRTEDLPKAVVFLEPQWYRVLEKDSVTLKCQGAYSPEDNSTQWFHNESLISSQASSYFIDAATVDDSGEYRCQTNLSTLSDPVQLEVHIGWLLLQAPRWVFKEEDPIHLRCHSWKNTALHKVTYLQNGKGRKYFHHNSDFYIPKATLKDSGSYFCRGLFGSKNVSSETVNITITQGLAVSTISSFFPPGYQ

| Binder | He/Con_2b (IIb binding) [1] | He/Con_3a (IIIa binding) [2] |
| --- | --- | --- |
| GpH7-A5/GpH7-B3 variant G237_08L/GpL16-k0 (heterodimerized antibody, He Ab) (antibody, human IgG1, kappa, Anti-glypican-3 IgG1; the alteration is in the GpH7-B3 chain only; also called G237L) heavy 1: not shown heavy 2: not shown light: DIVMTQSPLSLPVTPGEPASISCQASESLVHSNRNTYLHWYLQKPGQSPQLLIYKVSNRFSGVPDRFSGSGSGTDFTLKISRVEAEDVGVYYCSQNTHVPPTFGQGTKVEIERTVAAPSVFIFPPSDEQLKSGTASVVCLLNNFYPREAKVQWKVDNALQSGNSQESVTEQDSKDSTYSLSSTLTLSKADYEKHKVYACEVTHQGLSSPVTKSFNRGEC | 148 % of HeCon Ab | 24.9 % of HeCon Ab |
| GpH7-A5/GpH7-B3 variant G236_13S/GpL16-k0 (heterodimerized antibody, He Ab) (antibody, human IgG1, kappa, Anti-glypican-3 IgG1; the alteration is in the GpH7-B3 chain only; also called G236S) heavy 1: not shown heavy 2: not shown light: DIVMTQSPLSLPVTPGEPASISCQASESLVHSNRNTYLHWYLQKPGQSPQLLIYKVSNRFSGVPDRFSGSGSGTDFTLKISRVEAEDVGVYYCSQNTHVPPTFGQGTKVEIERTVAAPSVFIFPPSDEQLKSGTASVVCLLNNFYPREAKVQWKVDNALQSGNSQESVTEQDSKDSTYSLSSTLTLSKADYEKHKVYACEVTHQGLSSPVTKSFNRGEC | 96.7 % of HeCon Ab | 64.8 % of HeCon Ab |
| GpH7-A5/GpH7-B3 variant G236_11K/GpL16-k0 (heterodimerized antibody, He Ab) (antibody, human IgG1, kappa, Anti-glypican-3 IgG1; the alteration is in the GpH7-B3 chain only; also called G236K) heavy 1: not shown heavy 2: not shown light: DIVMTQSPLSLPVTPGEPASISCQASESLVHSNRNTYLHWYLQKPGQSPQLLIYKVSNRFSGVPDRFSGSGSGTDFTLKISRVEAEDVGVYYCSQNTHVPPTFGQGTKVEIERTVAAPSVFIFPPSDEQLKSGTASVVCLLNNFYPREAKVQWKVDNALQSGNSQESVTEQDSKDSTYSLSSTLTLSKADYEKHKVYACEVTHQGLSSPVTKSFNRGEC | 49.8 % of HeCon Ab | 18.6 % of HeCon Ab |
| GpH7-A5/GpH7-B3 variant G237_04F/GpL16-k0 (heterodimerized antibody, He Ab) (antibody, human IgG1, kappa, Anti-glypican-3 IgG1; the alteration is in the GpH7-B3 chain only; also called G237F) heavy 1: not shown heavy 2: not shown light: DIVMTQSPLSLPVTPGEPASISCQASESLVHSNRNTYLHWYLQKPGQSPQLLIYKVSNRFSGVPDRFSGSGSGTDFTLKISRVEAEDVGVYYCSQNTHVPPTFGQGTKVEIERTVAAPSVFIFPPSDEQLKSGTASVVCLLNNFYPREAKVQWKVDNALQSGNSQESVTEQDSKDSTYSLSSTLTLSKADYEKHKVYACEVTHQGLSSPVTKSFNRGEC | 149 % of HeCon Ab | 25.3 % of HeCon Ab |

Next, values leading:

| He/Con_2b (IIb binding) [1] | He/Con_3a (IIIa binding) [2] | Binder |
| --- | --- | --- |
| 130 % of HeCon Ab | 31.9 % of HeCon Ab | GpH7-A5/GpH7-B3 variant G237_06M/GpL16-k0 (heterodimerized antibody, He Ab) (antibody, human IgG1, kappa, Anti-glypican-3 IgG1; the alteration is in the GpH7-B3 chain only; also called G237M) heavy 1: not shown heavy 2: not shown light: DIVMTQSPLSLPVTPGEPASISCQASESLVHSNRNTYLHWYLQKPGQSPQLLIYKVSNRFSGVPDRFSGSGSGTDFTLKISRVEAEDVGVYYCSQNTHVPPTFGQGTKVEIERTVAAPSVFIFPPSDEQLKSGTASVVCLLNNFYPREAKVQWKVDNALQSGNSQESVTEQDSKDSTYSLSSTLTLSKADYEKHKVYACEVTHQGLSSPVTKSFNRGEC |
| 96.4 % of HeCon Ab | 37.8 % of HeCon Ab | GpH7-A5/GpH7-B3 variant G236_18N/GpL16-k0 (heterodimerized antibody, He Ab) (antibody, human IgG1, kappa, Anti-glypican-3 IgG1; the alteration is in the GpH7-B3 chain only; also called G236N) heavy 1: not shown heavy 2: not shown light: DIVMTQSPLSLPVTPGEPASISCQASESLVHSNRNTYLHWYLQKPGQSPQLLIYKVSNRFSGVPDRFSGSGSGTDFTLKISRVEAEDVGVYYCSQNTHVPPTFGQGTKVEIERTVAAPSVFIFPPSDEQLKSGTASVVCLLNNFYPREAKVQWKVDNALQSGNSQESVTEQDSKDSTYSLSSTLTLSKADYEKHKVYACEVTHQGLSSPVTKSFNRGEC |
| 167 % of HeCon Ab | 71.2 % of HeCon Ab | GpH7-A5/GpH7-B3 variant G236_09D/GpL16-k0 (heterodimerized antibody, He Ab) (antibody, human IgG1, kappa, Anti-glypican-3 IgG1; the alteration is in the GpH7-B3 chain only; also called G236D) heavy 1: not shown heavy 2: not shown light: DIVMTQSPLSLPVTPGEPASISCQASESLVHSNRNTYLHWYLQKPGQSPQLLIYKVSNRFSGVPDRFSGSGSGTDFTLKISRVEAEDVGVYYCSQNTHVPPTFGQGTKVEIERTVAAPSVFIFPPSDEQLKSGTASVVCLLNNFYPREAKVQWKVDNALQSGNSQESVTEQDSKDSTYSLSSTLTLSKADYEKHKVYACEVTHQGLSSPVTKSFNRGEC |
| 223 % of HeCon Ab | 17.7 % of HeCon Ab | GpH7-A5/GpH7-B3 variant G237_09D/GpL16-k0 (heterodimerized antibody, He Ab) (antibody, human IgG1, kappa, Anti-glypican-3 IgG1; the alteration is in the GpH7-B3 chain only; also called G237D) heavy 1: not shown heavy 2: not shown light: DIVMTQSPLSLPVTPGEPASISCQASESLVHSNRNTYLHWYLQKPGQSPQLLIYKVSNRFSGVPDRFSGSGSGTDFTLKISRVEAEDVGVYYCSQNTHVPPTFGQGTKVEIERTVAAPSVFIFPPSDEQLKSGTASVVCLLNNFYPREAKVQWKVDNALQSGNSQESVTEQDSKDSTYSLSSTLTLSKADYEKHKVYACEVTHQGLSSPVTKSFNRGEC |
